Patent US20250026852A1 (Chugai, published 2025)

Columns and labels:
human CD3ed-Fc [1] = target: T1, human CD3ed-Fc (human); test: phage display: ELISA / panning of the immunized-alpaca VHH library (Example 5-1 or 5-2)
T1 construct: Biotinylated in culture by BirA; also called biotin-labeled protein containing human CD3 epsilon and human CD3 delta linked to a human antibody constant region; CD3 heterodimer fused with the antibody constant region
T1 chain 1: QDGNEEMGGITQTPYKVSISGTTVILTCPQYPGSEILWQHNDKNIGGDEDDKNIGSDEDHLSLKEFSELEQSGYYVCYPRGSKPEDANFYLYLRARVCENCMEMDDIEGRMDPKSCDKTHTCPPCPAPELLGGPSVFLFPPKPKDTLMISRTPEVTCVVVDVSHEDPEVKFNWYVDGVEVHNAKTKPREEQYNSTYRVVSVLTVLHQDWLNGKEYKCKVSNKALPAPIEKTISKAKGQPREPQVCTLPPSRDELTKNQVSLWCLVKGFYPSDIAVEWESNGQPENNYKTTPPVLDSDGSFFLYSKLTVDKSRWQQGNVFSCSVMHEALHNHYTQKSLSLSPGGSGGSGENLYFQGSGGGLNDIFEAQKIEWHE
T1 chain 2: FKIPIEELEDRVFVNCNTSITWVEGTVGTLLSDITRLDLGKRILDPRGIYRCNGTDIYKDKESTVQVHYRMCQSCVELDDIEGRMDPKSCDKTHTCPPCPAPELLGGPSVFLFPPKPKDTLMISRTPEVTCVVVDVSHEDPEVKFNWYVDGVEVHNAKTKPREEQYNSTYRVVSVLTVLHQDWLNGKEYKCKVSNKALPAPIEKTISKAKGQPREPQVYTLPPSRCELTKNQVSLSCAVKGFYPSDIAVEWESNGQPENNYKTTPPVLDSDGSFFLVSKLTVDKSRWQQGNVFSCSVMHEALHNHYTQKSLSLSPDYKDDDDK

human CD3ed-Fc [2] = target: T1, human CD3ed-Fc; test: BLI (Octet RED), human CD3ed-Fc on the sensor, protease-treated molecule as analyte
Protocol: The protease concentration was set to 25 nM, and Octet RED (Pall ForteBio Corp.) was used in the assay.
Next, the CD3 binding evaluation of VHH released by protease treatment was conducted in the same way as in Example 3.

IL6R90-G1m/lamL = target: T2, IL6R90-G1m/lamL (Homo sapiens (Human), UniProt P0DOY2 1-106); test: BLI (Octet HTX), molecule captured on Protein A biosensor, hsIL-6R as analyte, 30 C
T2 construct: IgG antibody-like molecule; VHH IL6R90 in place of VH
Protocol: (§1) The hsIL-6R binding evaluation of each molecule was conducted using Octet HTX (Pall ForteBio Corp.). Specifically, each molecule was allowed to bind to Biosensor/Protein A (ProA) (Pall ForteBio Corp., 18-5013), and hsIL-6R was allowed to act thereon, followed by binding evaluation at 30° C.

IL6R90-G1m/VK2-28-k0MT = target: T3, IL6R90-G1m/VK2-28-k0MT; test: as above
T3 construct: IgG antibody-like molecule; VHH IL6R90 in place of VH
T3 sequence (light, as listed by the source, chain 2 of 2, other chains not shown): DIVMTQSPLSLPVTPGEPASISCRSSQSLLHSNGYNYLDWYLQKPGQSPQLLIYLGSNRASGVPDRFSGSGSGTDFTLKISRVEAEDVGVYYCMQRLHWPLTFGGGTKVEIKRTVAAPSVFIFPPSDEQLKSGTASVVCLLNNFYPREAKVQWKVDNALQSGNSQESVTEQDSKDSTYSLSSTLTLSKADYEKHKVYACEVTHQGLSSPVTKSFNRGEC
Protocol: as §1

20A11-G1m/VK2-28-k0MT = target: T4, 20A11-G1m/VK2-28-k0MT; test: BLI (Octet), in the same way as in Example 3
T4 construct: IgG antibody-like molecule; VHH 20A11 in place of VH
T4 sequence (heavy, as listed by the source, chain 1 of 2): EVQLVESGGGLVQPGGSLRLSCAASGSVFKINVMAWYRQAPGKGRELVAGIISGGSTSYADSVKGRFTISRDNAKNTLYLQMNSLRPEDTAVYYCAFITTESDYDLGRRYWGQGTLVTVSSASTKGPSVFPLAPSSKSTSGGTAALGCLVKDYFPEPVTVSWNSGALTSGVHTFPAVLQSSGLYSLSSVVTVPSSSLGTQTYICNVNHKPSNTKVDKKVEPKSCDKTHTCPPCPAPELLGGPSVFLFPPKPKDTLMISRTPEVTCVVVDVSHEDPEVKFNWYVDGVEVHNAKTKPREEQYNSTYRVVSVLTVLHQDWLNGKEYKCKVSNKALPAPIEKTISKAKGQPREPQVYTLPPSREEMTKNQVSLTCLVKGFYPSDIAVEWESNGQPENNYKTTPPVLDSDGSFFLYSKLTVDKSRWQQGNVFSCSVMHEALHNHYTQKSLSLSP
T4 sequence (light, as listed by the source, chain 2 of 2): as the sequence (light, as listed by the source, chain 2 of 2, other chains not shown) above

20A11hu-G1m/VK2-28-k0MT = target: T5, 20A11hu-G1m/VK2-28-k0MT (Homo sapiens (Human), UniProt P0DOX5 2-447 = IgG part); test: BLI (Octet), in the same way as in Example 3, 30 C or 25 C
T5 construct: IgG antibody-like molecule; VHH 20A11hu in place of VH
T5 sequence (P0DOX5 other isoform, or with tags, fused parts or gaps, chain 1 of 2): as the sequence (heavy, as listed by the source, chain 1 of 2) above, with Y37V, R45L, L47W counted along it
T5 sequence (light, as listed by the source, chain 2 of 2): as the sequence (light, as listed by the source, chain 2 of 2, other chains not shown) above
Protocol: Next, the IL-6R binding evaluation of VHH released by protease treatment was conducted at 30° C. or 25° C. in the same way as in Example 3.

B1: bC3edL1R1N160H01 (VHH)
VHH: QVQLVESGGGLVQPGGSLRLSCAASGFTFNHCWMYWVRQAPGKGLEWVSVINTDGGSAYYADSVKGRFTISRDNAKNTLYLQMNSLKSEDTAVYYCARDWAPLVDYYYGMDYWGKGTLVTVSG
binding result (human CD3ed-Fc [1]): binds

B2: bC3edL1R1N160H01-G1mISHI01/VK1-39-k0MT after protease (MT-SP1) treatment (VHH)
VHH: B1 VHH
notes: also called released VHH; not shown: residues of the protease cleavage site left at the C terminus
binding result (human CD3ed-Fc [2]): binds

B3: bC3edL1R1N161H01 (VHH)
VHH: QVQLVESGGGLVQPGGSLRLSCAASGFPFDNYVMSWVRQAPGKGLEWISAISWNGGSTYYAESMKGRFTISRDNAKSTLYLQMNSLKSEDTAVYYCAKEPRVYYSGSPDYWGQGTQVTVSG
binding result (human CD3ed-Fc [1]): binds

B4: bC3edL1R1N161H01-G1mISHI01/VK1-39-k0MT after protease (MT-SP1) treatment (VHH)
VHH: B3 VHH
notes: as for B2
binding result (human CD3ed-Fc [2]): binds

B5: bC3edL1R1N164H01 (VHH)
VHH: QVQLVESGGGLVQPGGSLRLSCAASGFTFDVYGMSWVRHSPGKGLEWVSTINWNGGSTYYAESMKGRFTISRDNAKNTVYLQMNSLKPEDTAVYYCAKFAPWDGDMEWGQGTQVTVSG
binding result (human CD3ed-Fc [1]): binds

B6: bC3edL1R1N164H01-G1mISHI01/VK1-39-k0MT after protease (MT-SP1) treatment (VHH)
VHH: B5 VHH
notes: as for B2
binding result (human CD3ed-Fc [2]): binds

B7: soluble human IL-6R (receptor)
chain: LAPRRCPAQEVARGVLTSLPGDSVTLTCPGVEPEDNATVHWVLRKPAAGSHPSRWAGMGRRLLLRSVQLHDSGNYSCYRAGRPAGTVHLLVDVPPEEPQLSCFRKSPLSNVVCEWGPRSTPSLTTKAVLLVRKFQNSPAEDFQEPCQYSQESQKFSCQLAVPEGDSSFYIVSMCVASSVGSKFSKTQTFQGCGILQPDPPANITVTAVARNPRWLSVTWQDPHSWNSSFYRLRFELRYRAERSKTFTTWMVKDLQHHCVIHDAWSGLRHVVQLRAQEEFGQGEWSEWSPEAMGTPWTESRSPPAENEVSTPMQALTTNKDDDNILFRDSANATSLPVQ
notes: also called hsIL-6R; recombinant human IL-6R
binding result (IL6R90-G1m/lamL): binds | binding result (IL6R90-G1m/VK2-28-k0MT): no binding | binding result (20A11-G1m/VK2-28-k0MT): binds | binding result (20A11hu-G1m/VK2-28-k0MT): no binding
